T1: cynomolgus monkey FcγRIIa1 extracellular domain with C-terminal His-tag (cynomolgus monkey)
T1 construct: Expressed in FreeStyle 293 cells and purified; also called cyno FcγRIIa1; cynoFcgRIIa1; not shown: C-terminal His-tag
T1 chain: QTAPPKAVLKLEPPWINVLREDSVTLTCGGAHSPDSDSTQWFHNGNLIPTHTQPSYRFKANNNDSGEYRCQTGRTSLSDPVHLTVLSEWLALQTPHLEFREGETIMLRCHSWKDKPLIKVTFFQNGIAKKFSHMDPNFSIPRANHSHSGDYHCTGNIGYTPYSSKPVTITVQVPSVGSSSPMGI

T2: human FcγRIIaH extracellular domain with C-terminal His-tag (human, UniProt P12318 34-217)
T2 construct: Expressed in FreeStyle 293 cells and purified; also called human FcγRIIa (type H); FcgRIIaH; not shown: C-terminal His-tag
T2 sequence: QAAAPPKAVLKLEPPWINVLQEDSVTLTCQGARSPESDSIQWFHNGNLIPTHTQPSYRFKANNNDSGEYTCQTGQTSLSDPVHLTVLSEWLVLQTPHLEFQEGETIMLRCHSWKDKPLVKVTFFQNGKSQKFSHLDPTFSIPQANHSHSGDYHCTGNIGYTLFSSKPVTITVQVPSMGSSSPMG


Tests used:
[1] = target: T1, cynomolgus monkey FcγRIIa1 …; experiment: SPR (Biacore); KD of SG1 divided by KD of the variant for this FcgR;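 also: relative to parent M103205H795-SG1 carrying the SG1 human heavy chain constant region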
[2] = target: T2, human FcγRIIaH extracellular domain …; experiment: as above

Row | KD fold (SG1 = 1) [1] [fold] | KD fold (SG1 = 1) [2] [fold] | Binder
1 | 1.2 | 0.4 | M103205H795-MY172 / M103202L889-SK1 (antibody, human IgG1, kappa, Position 396 variant derived from MY052, expressed with M103202L889-SK1 as light chain) heavy: QVTLKESGPVLVKPTETLTLTCTVSGIDLSHDDISWVRQAPGKGLEWVGIISYAGSTYYASWAKGRLTISKDTSKNQVVLTMTNMDPVDTATYYCARGVPAYSHGGDLWGQGTLVTVSSASTKGPSVFPLAPSSKSTSGGTAALGCLVKDYFPEPVTVSWNSGALTSGVHTFPAVLQSSGLYSLSSVVTVPSSSLGTQTYICNVNHKPSNTKVDKKVEPKSCDKTHTCPPCPAPELLNGPSVFLFPPKPKDTLMISRTPEVTCVVVDVSEEDPEVKFNWYVDGVEVHNAKTKPREEQYNSTYRVVSVLTVLHQDWLNGKEYKCKVSNKALPAPIEKTISKAKGQPREPQVYTLPPSREEMTKNQVSLTCLVKGFYPSDIAVEWESNGQPENNYKTTPGVLDSDGSFFLYSKLTVDKSRWQQGNVFSCSVMHEALHNHYTQKSLSLSP light: DIVMTQSPATLSLSPGERATLSCTSSQSVYHANWLSWFQQKPGQPPKLLIYWASTLAYGVPSRFSGSGSGTDFTLTISSLQPEDAATYYCAGGYGGGRYAFGQGTKVEIKRTVAAPSVFIFPPSDEQLKSGTASVVCLLNNFYPREAKVQWKVDNALQSGNSQESVTEQDSKDSTYSLSSTLTLSKADYEKHKVYACEVTHQGLSSPVTKSFNRGEC
2 | 2.3 | 0.8 | M103205H795-MY175 / M103202L889-SK1 (antibody, human IgG1, kappa, Position 396 variant derived from MY052, expressed with M103202L889-SK1 as light chain) heavy: QVTLKESGPVLVKPTETLTLTCTVSGIDLSHDDISWVRQAPGKGLEWVGIISYAGSTYYASWAKGRLTISKDTSKNQVVLTMTNMDPVDTATYYCARGVPAYSHGGDLWGQGTLVTVSSASTKGPSVFPLAPSSKSTSGGTAALGCLVKDYFPEPVTVSWNSGALTSGVHTFPAVLQSSGLYSLSSVVTVPSSSLGTQTYICNVNHKPSNTKVDKKVEPKSCDKTHTCPPCPAPELLNGPSVFLFPPKPKDTLMISRTPEVTCVVVDVSEEDPEVKFNWYVDGVEVHNAKTKPREEQYNSTYRVVSVLTVLHQDWLNGKEYKCKVSNKALPAPIEKTISKAKGQPREPQVYTLPPSREEMTKNQVSLTCLVKGFYPSDIAVEWESNGQPENNYKTTPKVLDSDGSFFLYSKLTVDKSRWQQGNVFSCSVMHEALHNHYTQKSLSLSP light: DIVMTQSPATLSLSPGERATLSCTSSQSVYHANWLSWFQQKPGQPPKLLIYWASTLAYGVPSRFSGSGSGTDFTLTISSLQPEDAATYYCAGGYGGGRYAFGQGTKVEIKRTVAAPSVFIFPPSDEQLKSGTASVVCLLNNFYPREAKVQWKVDNALQSGNSQESVTEQDSKDSTYSLSSTLTLSKADYEKHKVYACEVTHQGLSSPVTKSFNRGEC
3 | 2.1 | 0.9 | M103205H795-MY174 / M103202L889-SK1 (antibody, human IgG1, kappa, Position 396 variant derived from MY052, expressed with M103202L889-SK1 as light chain) heavy: QVTLKESGPVLVKPTETLTLTCTVSGIDLSHDDISWVRQAPGKGLEWVGIISYAGSTYYASWAKGRLTISKDTSKNQVVLTMTNMDPVDTATYYCARGVPAYSHGGDLWGQGTLVTVSSASTKGPSVFPLAPSSKSTSGGTAALGCLVKDYFPEPVTVSWNSGALTSGVHTFPAVLQSSGLYSLSSVVTVPSSSLGTQTYICNVNHKPSNTKVDKKVEPKSCDKTHTCPPCPAPELLNGPSVFLFPPKPKDTLMISRTPEVTCVVVDVSEEDPEVKFNWYVDGVEVHNAKTKPREEQYNSTYRVVSVLTVLHQDWLNGKEYKCKVSNKALPAPIEKTISKAKGQPREPQVYTLPPSREEMTKNQVSLTCLVKGFYPSDIAVEWESNGQPENNYKTTPIVLDSDGSFFLYSKLTVDKSRWQQGNVFSCSVMHEALHNHYTQKSLSLSP light: DIVMTQSPATLSLSPGERATLSCTSSQSVYHANWLSWFQQKPGQPPKLLIYWASTLAYGVPSRFSGSGSGTDFTLTISSLQPEDAATYYCAGGYGGGRYAFGQGTKVEIKRTVAAPSVFIFPPSDEQLKSGTASVVCLLNNFYPREAKVQWKVDNALQSGNSQESVTEQDSKDSTYSLSSTLTLSKADYEKHKVYACEVTHQGLSSPVTKSFNRGEC
4 | 2.5 | 1 | M103205H795-MY176 / M103202L889-SK1 (antibody, human IgG1, kappa, Position 396 variant derived from MY052, expressed with M103202L889-SK1 as light chain) heavy: QVTLKESGPVLVKPTETLTLTCTVSGIDLSHDDISWVRQAPGKGLEWVGIISYAGSTYYASWAKGRLTISKDTSKNQVVLTMTNMDPVDTATYYCARGVPAYSHGGDLWGQGTLVTVSSASTKGPSVFPLAPSSKSTSGGTAALGCLVKDYFPEPVTVSWNSGALTSGVHTFPAVLQSSGLYSLSSVVTVPSSSLGTQTYICNVNHKPSNTKVDKKVEPKSCDKTHTCPPCPAPELLNGPSVFLFPPKPKDTLMISRTPEVTCVVVDVSEEDPEVKFNWYVDGVEVHNAKTKPREEQYNSTYRVVSVLTVLHQDWLNGKEYKCKVSNKALPAPIEKTISKAKGQPREPQVYTLPPSREEMTKNQVSLTCLVKGFYPSDIAVEWESNGQPENNYKTTPLVLDSDGSFFLYSKLTVDKSRWQQGNVFSCSVMHEALHNHYTQKSLSLSP light: DIVMTQSPATLSLSPGERATLSCTSSQSVYHANWLSWFQQKPGQPPKLLIYWASTLAYGVPSRFSGSGSGTDFTLTISSLQPEDAATYYCAGGYGGGRYAFGQGTKVEIKRTVAAPSVFIFPPSDEQLKSGTASVVCLLNNFYPREAKVQWKVDNALQSGNSQESVTEQDSKDSTYSLSSTLTLSKADYEKHKVYACEVTHQGLSSPVTKSFNRGEC
5 | 1.7 | 0.6 | M103205H795-MY179 / M103202L889-SK1 (antibody, human IgG1, kappa, Position 396 variant derived from MY052, expressed with M103202L889-SK1 as light chain) heavy: QVTLKESGPVLVKPTETLTLTCTVSGIDLSHDDISWVRQAPGKGLEWVGIISYAGSTYYASWAKGRLTISKDTSKNQVVLTMTNMDPVDTATYYCARGVPAYSHGGDLWGQGTLVTVSSASTKGPSVFPLAPSSKSTSGGTAALGCLVKDYFPEPVTVSWNSGALTSGVHTFPAVLQSSGLYSLSSVVTVPSSSLGTQTYICNVNHKPSNTKVDKKVEPKSCDKTHTCPPCPAPELLNGPSVFLFPPKPKDTLMISRTPEVTCVVVDVSEEDPEVKFNWYVDGVEVHNAKTKPREEQYNSTYRVVSVLTVLHQDWLNGKEYKCKVSNKALPAPIEKTISKAKGQPREPQVYTLPPSREEMTKNQVSLTCLVKGFYPSDIAVEWESNGQPENNYKTTPRVLDSDGSFFLYSKLTVDKSRWQQGNVFSCSVMHEALHNHYTQKSLSLSP light: DIVMTQSPATLSLSPGERATLSCTSSQSVYHANWLSWFQQKPGQPPKLLIYWASTLAYGVPSRFSGSGSGTDFTLTISSLQPEDAATYYCAGGYGGGRYAFGQGTKVEIKRTVAAPSVFIFPPSDEQLKSGTASVVCLLNNFYPREAKVQWKVDNALQSGNSQESVTEQDSKDSTYSLSSTLTLSKADYEKHKVYACEVTHQGLSSPVTKSFNRGEC
6 | 1.7 | 0.7 | M103205H795-MY177 / M103202L889-SK1 (antibody, human IgG1, kappa, Position 396 variant derived from MY052, expressed with M103202L889-SK1 as light chain) heavy: QVTLKESGPVLVKPTETLTLTCTVSGIDLSHDDISWVRQAPGKGLEWVGIISYAGSTYYASWAKGRLTISKDTSKNQVVLTMTNMDPVDTATYYCARGVPAYSHGGDLWGQGTLVTVSSASTKGPSVFPLAPSSKSTSGGTAALGCLVKDYFPEPVTVSWNSGALTSGVHTFPAVLQSSGLYSLSSVVTVPSSSLGTQTYICNVNHKPSNTKVDKKVEPKSCDKTHTCPPCPAPELLNGPSVFLFPPKPKDTLMISRTPEVTCVVVDVSEEDPEVKFNWYVDGVEVHNAKTKPREEQYNSTYRVVSVLTVLHQDWLNGKEYKCKVSNKALPAPIEKTISKAKGQPREPQVYTLPPSREEMTKNQVSLTCLVKGFYPSDIAVEWESNGQPENNYKTTPNVLDSDGSFFLYSKLTVDKSRWQQGNVFSCSVMHEALHNHYTQKSLSLSP light: DIVMTQSPATLSLSPGERATLSCTSSQSVYHANWLSWFQQKPGQPPKLLIYWASTLAYGVPSRFSGSGSGTDFTLTISSLQPEDAATYYCAGGYGGGRYAFGQGTKVEIKRTVAAPSVFIFPPSDEQLKSGTASVVCLLNNFYPREAKVQWKVDNALQSGNSQESVTEQDSKDSTYSLSSTLTLSKADYEKHKVYACEVTHQGLSSPVTKSFNRGEC
7 | 1.9 | 0.7 | M103205H795-MY173 / M103202L889-SK1 (antibody, human IgG1, kappa, Position 396 variant derived from MY052, expressed with M103202L889-SK1 as light chain) heavy: QVTLKESGPVLVKPTETLTLTCTVSGIDLSHDDISWVRQAPGKGLEWVGIISYAGSTYYASWAKGRLTISKDTSKNQVVLTMTNMDPVDTATYYCARGVPAYSHGGDLWGQGTLVTVSSASTKGPSVFPLAPSSKSTSGGTAALGCLVKDYFPEPVTVSWNSGALTSGVHTFPAVLQSSGLYSLSSVVTVPSSSLGTQTYICNVNHKPSNTKVDKKVEPKSCDKTHTCPPCPAPELLNGPSVFLFPPKPKDTLMISRTPEVTCVVVDVSEEDPEVKFNWYVDGVEVHNAKTKPREEQYNSTYRVVSVLTVLHQDWLNGKEYKCKVSNKALPAPIEKTISKAKGQPREPQVYTLPPSREEMTKNQVSLTCLVKGFYPSDIAVEWESNGQPENNYKTTPHVLDSDGSFFLYSKLTVDKSRWQQGNVFSCSVMHEALHNHYTQKSLSLSP light: DIVMTQSPATLSLSPGERATLSCTSSQSVYHANWLSWFQQKPGQPPKLLIYWASTLAYGVPSRFSGSGSGTDFTLTISSLQPEDAATYYCAGGYGGGRYAFGQGTKVEIKRTVAAPSVFIFPPSDEQLKSGTASVVCLLNNFYPREAKVQWKVDNALQSGNSQESVTEQDSKDSTYSLSSTLTLSKADYEKHKVYACEVTHQGLSSPVTKSFNRGEC
8 | 1.6 | 0.5 | M103205H795-MY178 / M103202L889-SK1 (antibody, human IgG1, kappa, Position 396 variant derived from MY052, expressed with M103202L889-SK1 as light chain) heavy: QVTLKESGPVLVKPTETLTLTCTVSGIDLSHDDISWVRQAPGKGLEWVGIISYAGSTYYASWAKGRLTISKDTSKNQVVLTMTNMDPVDTATYYCARGVPAYSHGGDLWGQGTLVTVSSASTKGPSVFPLAPSSKSTSGGTAALGCLVKDYFPEPVTVSWNSGALTSGVHTFPAVLQSSGLYSLSSVVTVPSSSLGTQTYICNVNHKPSNTKVDKKVEPKSCDKTHTCPPCPAPELLNGPSVFLFPPKPKDTLMISRTPEVTCVVVDVSEEDPEVKFNWYVDGVEVHNAKTKPREEQYNSTYRVVSVLTVLHQDWLNGKEYKCKVSNKALPAPIEKTISKAKGQPREPQVYTLPPSREEMTKNQVSLTCLVKGFYPSDIAVEWESNGQPENNYKTTPQVLDSDGSFFLYSKLTVDKSRWQQGNVFSCSVMHEALHNHYTQKSLSLSP light: DIVMTQSPATLSLSPGERATLSCTSSQSVYHANWLSWFQQKPGQPPKLLIYWASTLAYGVPSRFSGSGSGTDFTLTISSLQPEDAATYYCAGGYGGGRYAFGQGTKVEIKRTVAAPSVFIFPPSDEQLKSGTASVVCLLNNFYPREAKVQWKVDNALQSGNSQESVTEQDSKDSTYSLSSTLTLSKADYEKHKVYACEVTHQGLSSPVTKSFNRGEC
